target: T1, CD3 epsilon homodimer protein (UniProt P07766 23-126); assay: SPR (Biacore T200), CD3e homodimer on CM4 chip, antibody as analyte; KD ratio vs unaltered GLS3000;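 also: CD3 epsilon homodimer amine-coupled to the sensor surface, antibodies injected as analyte at 25 °C with HBS-EP+ running buffer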
T1 construct: also called CD3 (CD3 epsilon)
T1 sequence (P07766 23-126): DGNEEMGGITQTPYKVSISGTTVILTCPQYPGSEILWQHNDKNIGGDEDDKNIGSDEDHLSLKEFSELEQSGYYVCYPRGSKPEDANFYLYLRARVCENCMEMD

Binder	KD ratio to GLS3000
CE115HA000/GLS3000 T92D one-arm antibody (antibody, human IgG1, kappa, L234A L235A, N297A, name in Kabat numbering, one-arm IgG1) heavy: QVQLVESGGGVVQPGRSLRLSCAASGFTFSNAWMHWVRQAPGKGLEWVAQIKAKSNNYATYYAESVKGRFTISRDDSKNSLYLQMNSLKTEDTAVYYCRYVHYGAYYGVDAWGQGTTVTVSSASTKGPSVFPLAPSSKSTSGGTAALGCLVKDYFPEPVTVSWNSGALTSGVHTFPAVLQSSGLYSLSSVVTVPSSSLGTQTYICNVNHKPSNTKVDKKVEPKSCDKTHTCPPCPAPEAAGGPSVFLFPPKPKDTLMISRTPEVTCVVVDVSHEDPEVKFNWYVDGVEVHNAKTKPREEQYASTYRVVSVLTVLHQDWLNGKEYKCKVSNKALPAPIEKTISKAKGQPREPQVYTLPPSRCELTKNQVSLSCAVKGFYPSDIAVEWESNGQPENNYKTTPPVLDSDGSFFLVSKLTVDKSRWQQGNVFSCSVMHEALHNHYTQKSLSLSPDYKDDDDK EPKSSDKTHTCPPCPAPELLGGPSVFLFPPKPKDTLMISRTPEVTCVVVDVSHEDPEVKFNWYVDGVEVHNAKTKPREEQYNSTYRVVSVLTVLHQDWLNGKEYKCKVSNKALPAPIEKTISKAKGQPREPQVCTLPPSRDELTKNQVSLWCLVKGFYPSDIAVEWESNGQPENNYKTTPPVLDSDGSFFLYSKLTVDKSRWQQGNVFSCSVMHEALHNRYTQKSLSLSP light: DIVMTQSPLSLPVTPGEPASISCRSSQSLVHSNRNTYLHWYQQKPGQAPRLLIYKVSNRFSGVPDRFSGSGSGTDFTLKISRVEAEDVGVYYCGQGDQVPYTFGQGTKLEIKRTVAAPSVFIFPPSDEQLKSGTASVVCLLNNFYPREAKVQWKVDNALQSGNSQESVTEQDSKDSTYSLSSTLTLSKADYEKHKVYACEVTHQGLSSPVTKSFNRGEC	11.2 ratio
CE115HA000/GLS3000 V51E one-arm antibody (antibody, human IgG1, kappa, L234A L235A, N297A, name in Kabat numbering, one-arm IgG1) heavy: QVQLVESGGGVVQPGRSLRLSCAASGFTFSNAWMHWVRQAPGKGLEWVAQIKAKSNNYATYYAESVKGRFTISRDDSKNSLYLQMNSLKTEDTAVYYCRYVHYGAYYGVDAWGQGTTVTVSSASTKGPSVFPLAPSSKSTSGGTAALGCLVKDYFPEPVTVSWNSGALTSGVHTFPAVLQSSGLYSLSSVVTVPSSSLGTQTYICNVNHKPSNTKVDKKVEPKSCDKTHTCPPCPAPEAAGGPSVFLFPPKPKDTLMISRTPEVTCVVVDVSHEDPEVKFNWYVDGVEVHNAKTKPREEQYASTYRVVSVLTVLHQDWLNGKEYKCKVSNKALPAPIEKTISKAKGQPREPQVYTLPPSRCELTKNQVSLSCAVKGFYPSDIAVEWESNGQPENNYKTTPPVLDSDGSFFLVSKLTVDKSRWQQGNVFSCSVMHEALHNHYTQKSLSLSPDYKDDDDK EPKSSDKTHTCPPCPAPELLGGPSVFLFPPKPKDTLMISRTPEVTCVVVDVSHEDPEVKFNWYVDGVEVHNAKTKPREEQYNSTYRVVSVLTVLHQDWLNGKEYKCKVSNKALPAPIEKTISKAKGQPREPQVCTLPPSRDELTKNQVSLWCLVKGFYPSDIAVEWESNGQPENNYKTTPPVLDSDGSFFLYSKLTVDKSRWQQGNVFSCSVMHEALHNRYTQKSLSLSP light: DIVMTQSPLSLPVTPGEPASISCRSSQSLVHSNRNTYLHWYQQKPGQAPRLLIYKESNRFSGVPDRFSGSGSGTDFTLKISRVEAEDVGVYYCGQGTQVPYTFGQGTKLEIKRTVAAPSVFIFPPSDEQLKSGTASVVCLLNNFYPREAKVQWKVDNALQSGNSQESVTEQDSKDSTYSLSSTLTLSKADYEKHKVYACEVTHQGLSSPVTKSFNRGEC	0.88 ratio
CE115HA000/GLS3000 T92I one-arm antibody (antibody, human IgG1, kappa, L234A L235A, N297A, name in Kabat numbering, one-arm IgG1) heavy: QVQLVESGGGVVQPGRSLRLSCAASGFTFSNAWMHWVRQAPGKGLEWVAQIKAKSNNYATYYAESVKGRFTISRDDSKNSLYLQMNSLKTEDTAVYYCRYVHYGAYYGVDAWGQGTTVTVSSASTKGPSVFPLAPSSKSTSGGTAALGCLVKDYFPEPVTVSWNSGALTSGVHTFPAVLQSSGLYSLSSVVTVPSSSLGTQTYICNVNHKPSNTKVDKKVEPKSCDKTHTCPPCPAPEAAGGPSVFLFPPKPKDTLMISRTPEVTCVVVDVSHEDPEVKFNWYVDGVEVHNAKTKPREEQYASTYRVVSVLTVLHQDWLNGKEYKCKVSNKALPAPIEKTISKAKGQPREPQVYTLPPSRCELTKNQVSLSCAVKGFYPSDIAVEWESNGQPENNYKTTPPVLDSDGSFFLVSKLTVDKSRWQQGNVFSCSVMHEALHNHYTQKSLSLSPDYKDDDDK EPKSSDKTHTCPPCPAPELLGGPSVFLFPPKPKDTLMISRTPEVTCVVVDVSHEDPEVKFNWYVDGVEVHNAKTKPREEQYNSTYRVVSVLTVLHQDWLNGKEYKCKVSNKALPAPIEKTISKAKGQPREPQVCTLPPSRDELTKNQVSLWCLVKGFYPSDIAVEWESNGQPENNYKTTPPVLDSDGSFFLYSKLTVDKSRWQQGNVFSCSVMHEALHNRYTQKSLSLSP light: DIVMTQSPLSLPVTPGEPASISCRSSQSLVHSNRNTYLHWYQQKPGQAPRLLIYKVSNRFSGVPDRFSGSGSGTDFTLKISRVEAEDVGVYYCGQGIQVPYTFGQGTKLEIKRTVAAPSVFIFPPSDEQLKSGTASVVCLLNNFYPREAKVQWKVDNALQSGNSQESVTEQDSKDSTYSLSSTLTLSKADYEKHKVYACEVTHQGLSSPVTKSFNRGEC	1.91 ratio
CE115HA000/GLS3000 T92E one-arm antibody (antibody, human IgG1, kappa, L234A L235A, N297A, name in Kabat numbering, one-arm IgG1) heavy: QVQLVESGGGVVQPGRSLRLSCAASGFTFSNAWMHWVRQAPGKGLEWVAQIKAKSNNYATYYAESVKGRFTISRDDSKNSLYLQMNSLKTEDTAVYYCRYVHYGAYYGVDAWGQGTTVTVSSASTKGPSVFPLAPSSKSTSGGTAALGCLVKDYFPEPVTVSWNSGALTSGVHTFPAVLQSSGLYSLSSVVTVPSSSLGTQTYICNVNHKPSNTKVDKKVEPKSCDKTHTCPPCPAPEAAGGPSVFLFPPKPKDTLMISRTPEVTCVVVDVSHEDPEVKFNWYVDGVEVHNAKTKPREEQYASTYRVVSVLTVLHQDWLNGKEYKCKVSNKALPAPIEKTISKAKGQPREPQVYTLPPSRCELTKNQVSLSCAVKGFYPSDIAVEWESNGQPENNYKTTPPVLDSDGSFFLVSKLTVDKSRWQQGNVFSCSVMHEALHNHYTQKSLSLSPDYKDDDDK EPKSSDKTHTCPPCPAPELLGGPSVFLFPPKPKDTLMISRTPEVTCVVVDVSHEDPEVKFNWYVDGVEVHNAKTKPREEQYNSTYRVVSVLTVLHQDWLNGKEYKCKVSNKALPAPIEKTISKAKGQPREPQVCTLPPSRDELTKNQVSLWCLVKGFYPSDIAVEWESNGQPENNYKTTPPVLDSDGSFFLYSKLTVDKSRWQQGNVFSCSVMHEALHNRYTQKSLSLSP light: DIVMTQSPLSLPVTPGEPASISCRSSQSLVHSNRNTYLHWYQQKPGQAPRLLIYKVSNRFSGVPDRFSGSGSGTDFTLKISRVEAEDVGVYYCGQGEQVPYTFGQGTKLEIKRTVAAPSVFIFPPSDEQLKSGTASVVCLLNNFYPREAKVQWKVDNALQSGNSQESVTEQDSKDSTYSLSSTLTLSKADYEKHKVYACEVTHQGLSSPVTKSFNRGEC	19.6 ratio
CE115HA000/GLS3000 V51D one-arm antibody (antibody, human IgG1, kappa, L234A L235A, N297A, name in Kabat numbering, one-arm IgG1) heavy: QVQLVESGGGVVQPGRSLRLSCAASGFTFSNAWMHWVRQAPGKGLEWVAQIKAKSNNYATYYAESVKGRFTISRDDSKNSLYLQMNSLKTEDTAVYYCRYVHYGAYYGVDAWGQGTTVTVSSASTKGPSVFPLAPSSKSTSGGTAALGCLVKDYFPEPVTVSWNSGALTSGVHTFPAVLQSSGLYSLSSVVTVPSSSLGTQTYICNVNHKPSNTKVDKKVEPKSCDKTHTCPPCPAPEAAGGPSVFLFPPKPKDTLMISRTPEVTCVVVDVSHEDPEVKFNWYVDGVEVHNAKTKPREEQYASTYRVVSVLTVLHQDWLNGKEYKCKVSNKALPAPIEKTISKAKGQPREPQVYTLPPSRCELTKNQVSLSCAVKGFYPSDIAVEWESNGQPENNYKTTPPVLDSDGSFFLVSKLTVDKSRWQQGNVFSCSVMHEALHNHYTQKSLSLSPDYKDDDDK EPKSSDKTHTCPPCPAPELLGGPSVFLFPPKPKDTLMISRTPEVTCVVVDVSHEDPEVKFNWYVDGVEVHNAKTKPREEQYNSTYRVVSVLTVLHQDWLNGKEYKCKVSNKALPAPIEKTISKAKGQPREPQVCTLPPSRDELTKNQVSLWCLVKGFYPSDIAVEWESNGQPENNYKTTPPVLDSDGSFFLYSKLTVDKSRWQQGNVFSCSVMHEALHNRYTQKSLSLSP light: DIVMTQSPLSLPVTPGEPASISCRSSQSLVHSNRNTYLHWYQQKPGQAPRLLIYKDSNRFSGVPDRFSGSGSGTDFTLKISRVEAEDVGVYYCGQGTQVPYTFGQGTKLEIKRTVAAPSVFIFPPSDEQLKSGTASVVCLLNNFYPREAKVQWKVDNALQSGNSQESVTEQDSKDSTYSLSSTLTLSKADYEKHKVYACEVTHQGLSSPVTKSFNRGEC	1.5 ratio
CE115HA000/GLS3000 T92L one-arm antibody (antibody, human IgG1, kappa, L234A L235A, N297A, name in Kabat numbering, one-arm IgG1) heavy: QVQLVESGGGVVQPGRSLRLSCAASGFTFSNAWMHWVRQAPGKGLEWVAQIKAKSNNYATYYAESVKGRFTISRDDSKNSLYLQMNSLKTEDTAVYYCRYVHYGAYYGVDAWGQGTTVTVSSASTKGPSVFPLAPSSKSTSGGTAALGCLVKDYFPEPVTVSWNSGALTSGVHTFPAVLQSSGLYSLSSVVTVPSSSLGTQTYICNVNHKPSNTKVDKKVEPKSCDKTHTCPPCPAPEAAGGPSVFLFPPKPKDTLMISRTPEVTCVVVDVSHEDPEVKFNWYVDGVEVHNAKTKPREEQYASTYRVVSVLTVLHQDWLNGKEYKCKVSNKALPAPIEKTISKAKGQPREPQVYTLPPSRCELTKNQVSLSCAVKGFYPSDIAVEWESNGQPENNYKTTPPVLDSDGSFFLVSKLTVDKSRWQQGNVFSCSVMHEALHNHYTQKSLSLSPDYKDDDDK EPKSSDKTHTCPPCPAPELLGGPSVFLFPPKPKDTLMISRTPEVTCVVVDVSHEDPEVKFNWYVDGVEVHNAKTKPREEQYNSTYRVVSVLTVLHQDWLNGKEYKCKVSNKALPAPIEKTISKAKGQPREPQVCTLPPSRDELTKNQVSLWCLVKGFYPSDIAVEWESNGQPENNYKTTPPVLDSDGSFFLYSKLTVDKSRWQQGNVFSCSVMHEALHNRYTQKSLSLSP light: DIVMTQSPLSLPVTPGEPASISCRSSQSLVHSNRNTYLHWYQQKPGQAPRLLIYKVSNRFSGVPDRFSGSGSGTDFTLKISRVEAEDVGVYYCGQGLQVPYTFGQGTKLEIKRTVAAPSVFIFPPSDEQLKSGTASVVCLLNNFYPREAKVQWKVDNALQSGNSQESVTEQDSKDSTYSLSSTLTLSKADYEKHKVYACEVTHQGLSSPVTKSFNRGEC	1.61 ratio
